From doi:10.1101/2023.04.20.537738 (bioRxiv, 2023) come the findings set out here.

The target in the test is SARS-CoV-2 (WA-1) Spike receptor binding domain (RBD)-mouse Fc fusion protein (SARS-CoV-2, UniProt P0DTC2). Description: flow cytometry on cells.

B1: FG-10A3 (Family G clone 10A3) human anti-SARS-CoV-2 Spike RBD neutralizing monoclonal antibody (antibody, V domains shown)
VH: QVQLVESGGGVVQPGRSLRLSCAASGFTFSSYGMNWVRQAPGKGLEWVAIIWYDGNNTYYVDSVKGRFTISRDNSKNTLYLQMNSLRAEDTAVYYCARKDGSKTYYGYYFDYWGQGTLVTVSS
VL: DIQMTQSPSSLSASVGDRVTITCRASQSIHSFLNWYQQKPGKPPNLLIYAASSLQSGLPSRFSGSGSGTDFTLTISSLQPEDFATYYCQQSYITPPTFGHGTKVEIK
Consider B1, for which the binding result is recorded as “binds”.
